This is an account of results in article PMC6458997, “Deciphering the Molecular Mechanism Underpinning Phage Arbitrium Communication Systems” (Molecular Cell, 2019).

Substitutions are numbered along the chain they refer to. In names and notes the source's numbering stands. Entries after “also recorded” stand apart in the source; their conditions may differ.

Data set [1] in a line: Size-exclusion chromatography of AimR^ΔC-ter. In kind it is physicochemical. The settings on record: stop codon at position 294.
Data set [2] can be described thus: SEC-MALS, oligomeric state of AimR proteins. The class given is physicochemical. The settings on record: 5 mg/mL, Superdex 200 HR 10/300, 25 mM Tris pH 8, 250 mM NaCl. Here is the method:
SEC-MALS experiments were performed using an AKTA pure system (GE Heralthcare) coupled to a Wyatt DAWN HELEOS-II MALS instrument and a Wyatt Optilab rEX differential refractometer (Wyatt). 50 μL of the protein samples were injected at a concentration of 5 mg/mL on a Superdex 200 HR 10/300 (GE Heralthcare) column equilibrated in 25 mM Tris pH 8, 250 mM NaCl. When the effect of the peptide in the oligomeric state was tested, 1 mM peptide was added to the injected sample and the running buffer was supplemented with peptide at a final concentration of 1 μM. The Astra 7.1.2 software from the manufacturer was used for acquisition and analysis of the data.

Data set [3] deals with SPbeta AimR operator. The conditions noted are these: pH 7.5. Here is the method: AimR binding to its operator and the inhibition induced by the arbitrium peptides were analyzed by native polyacrylamide and agarose gel electrophoresis. […] Double strand DNA primer probes were purchased from Macrogen (Table S1 and Figure 3A). Purified PCR product or purchased probes (0.4μM) and AimR (4μM) protein were mixed in EMSA buffer (50 mM HEPES pH 7.5, 5 mM MgCl2, 75 mM NaCl and 0.5 mM EDTA). The samples were incubated for 10 min at room temperature. 8% polyacrylamide gels were electrophoresed in Tris-Borate-EDTA (TBE) buffer at 100V for one hour, followed by loading of the samples. Electrophoresis was then performed in TBE buffer at 4°C for about 150 min at 100V. Agarose gels (0.8%–1.2%) were run in TAE buffer at room temperature for about 100 min at 80V. Gels were stained with RedSafe (Intron Biotechnology).

Data set [4] relates to putative AimR operators found in SPbeta genome. As to the kind of experiment: EMSA, AimR binding to other SPbeta operators with longer spacers. Also on record: species or system Bacillus subtilis SPbeta phage. The conditions noted are these: spacers of 27 and 28 bp. From the text: (§1) Gels were stained with RedSafe (Intron Biotechnology).
Data set [5] relates to intergenic region between yopL and yopM. The data set is described as follows: Nuclease protection assay (footprinting). In kind it is binding, Bacillus subtilis SPbeta phage. The conditions noted are these: 0.3 μM AimR SPbeta, 10 min room temperature; DNase I 10^−4 mg/mL, 1 min at 37°C; capillary electrophoresis.
The test system of data set [6] is spacer-length-variant operators. As to the kind of experiment: EMSA and titration, AimR binding to spacer-length-variant operators. Also on record: species or system Bacillus subtilis SPbeta phage. The conditions noted are these: apo AimR; spacers 12 to 35 bp; titration with 0.125 to 1 μg AimR.
From the text: as §1

The subject of data set [7] is SPbeta AimR D360A. The data set is described as follows: Thermal shift assay, mutant AimR D360A. The class given is binding, Bacillus subtilis SPbeta phage. The settings on record: AimR^D360A versus WT AimR. The protocol:
The thermal shift assay was conducted in a 7500 Fast Real time PCR System (Applied Biosystems). Samples of 20 μL containing 5 × Sypro Orange (Sigma-Aldrich) and 20 μM of protein in a 20 mM Tris pH 8 and 250 mM NaCl buffer were loaded in 96-well PCR plates. To calculate the apparent Kd peptide concentrations from 0 to 2 μM were added to the mixture. Samples were heated from 20 to 85°C in steps of one degree. Fluorescent intensity was plotted versus temperature and integrated with GraphPad Prism software using a Boltzmann model to calculate melting temperatures.

B1: AimR^ΔC-ter: AimR mutant lacking the TPR^C-ter subdomain, stop codon at position 294 (protein)
chain: MELIRIAMKKDLENDNSLMNKWATVAGLKNPNPLYDFLNHDGKTFNEFSSIVNIVKSQYPDREYELMKDYCLNLDVKTKAARSALEYADANMFFEIEDVLIDSMISCSNMKSKEYGKVYKIHRELSNSVITEFEAVKRLGKLNIKTPEMNSFSRLLLLYHYLSTGNFSPMAQLIKQIDLSEISENMYIRNTYQTRVHVLMSNIKLNENSLEECREYSKKALESTNILRFQVFSYLTIGNSLLFSNYELAQENFLKGLSISVQNENYNMIFQQALCFLNNVWRKENKWINFESD
Take B1: in data set [1], the “oligomeric state in solution (size-exclusion chromatography)” value is on record as “monomeric in solution”.

B2: SPbeta AimR: full-length AimR (residues 1-386) from the SPbeta phage, transcription factor and arbitrium receptor (protein)
chain: MELIRIAMKKDLENDNSLMNKWATVAGLKNPNPLYDFLNHDGKTFNEFSSIVNIVKSQYPDREYELMKDYCLNLDVKTKAARSALEYADANMFFEIEDVLIDSMISCSNMKSKEYGKVYKIHRELSNSVITEFEAVKRLGKLNIKTPEMNSFSRLLLLYHYLSTGNFSPMAQLIKQIDLSEISENMYIRNTYQTRVHVLMSNIKLNENSLEECREYSKKALESTNILRFQVFSYLTIGNSLLFSNYELAQENFLKGLSISVQNENYNMIFQQALCFLNNVWRKENKWINFESDSIMDLQEQAHCFINFNENSKAKEVLDKLDLLVHNDNELAMHYYLKGRLEQNKACFYSSIEYFKKSNDKFLIRLPLLELQKMGENQKLLELLLL
modifications: left off: His6, N-terminal, cleaved
notes: full-length AimR (residues 1-386) from the SPbeta phage, transcription factor and arbitrium receptor
For B2, in data set [2], the “oligomeric state in solution” value is “dimeric organization”. In data set [3], the “binding to SPbeta operator or 359 bp fragment” value was “binds to a 359 bp fragment”. Also, the “binding to other SPbeta operators” value in data set [4] is given as “AimR binding to other SPbeta operators with longer spacers”. The “length of sequence protected from DNase I degradation” value in data set [5] worked out at 37 nt. Moreover, the “affinity / capacity to bind spacer-length-variant operators” value in data set [6] is “after eliminating 2 bp AimR dramatically loses its capacity to bind the operator; also recorded: can recognize operators in which the spacer has been increased even more than 6 bp”.

B3: AimR^N202A: SPbeta AimR residue N202 mutated to Ala (protein)
chain: B2 chain with N202A
For the molecule B3, the “oligomeric state in solution” value in data set [2] is recorded as “dimeric in solution”. In data set [3], the “binding to SPbeta operator or 359 bp fragment” value is recorded as “able to bind DNA”.

B4: AimR^D360A: SPbeta AimR residue D360 mutated to Ala (protein)
chain: B2 chain with D360A
With B4, in data set [2], the “oligomeric state in solution” value was “dimeric in solution”. In data set [7], the “decrease in the melting temperature with respect to the WT AimR” value is 5.3 °C.
